Experimental data: the DeepSol protein solubility set

assay: soluble on expression in E. coli; label from the status in PepcDB or PDB records

| Sequence | soluble on expression in E. coli |
| --- | --- |
| MAHHHHHHMPHAGNKLVPIGCNMNDAAYPFRGEHRLANCINHGHSGVVKRIPTSIAMRISGSNLVIEEVKTPKGVELECELGVDGGIARPVSLQQASAFMVPSDGHNYNLIAAVKASGNPMKHYCKLTFNGSEGITVLRMRAPEGCSPDAVYIVADGRRLRPTAGWFRIPIHTKECALVANLPLDDAPPPPPPPPPPPPPPPSFSFTATPPLPPAPSGGLAEKTLEATTGAPWTAENVPELETRIHPPLIPNAGAVTLTEPVPAAMPSFVATAPGFSLQLTGENGSSVFGVGVAALPLSHRRAQTVQIVVSDAQGRVLLRQRSHVPSLEPAAVSLAVKDDGKGGLALSANPGSKITVGGVPQADPSATAVLPRVVPQRAVVEQPNADGSVSKATLDVAPTSEPAPVSAAVSKQLPQQPQAPALPEAWVKELSDALQNSNPEEQRHLLQRIYPSSIPGVTIVNFVRDQLTRQPPAISFTVSSNGLEAVQCPGCSVTAAVGNDPARQIPAFGSVALASGKSALLTATSTVRHSAVSACRVQIGVPSAVAFTSPTVSAYPPHAAAGPPMQAGPSADERADSDVVSRLVDCLLRHNLSAPLVARELDSMSTAPFSAQGRRMLSLLTSCLRSATASGAAAAMQAASTQAAAITHAAPEEIFFTCGPGYVDNIYTTQPQYQLFGAVDNQAPQGGAAARPDTCAGYSRG | not soluble |
| MAHHHHHHMPPSNVRKEEAELRQIAKQARLARKEVQQRERKQRQRERRAAAKNGEAATAAQQTAASSAMRTRGAIILPDEVQELRQRLMGDDAASAASAADSPARKTKKAAARKAARSPAKKSAGAAGASNHGAASSSTLVPTYHQEVHFKKKMFFVDVVLHHVPHQKIDISETNTNRLVVDTCGHTKKYRLVLPYPKGMLCDAAAATYEFENGILQCRLPIMDGAIPASLEAENAKMIEKMRQQRALRFRVTRDGDLTVRTRQALLTQAPAAQAALPEAKKAAAAQRGDDTDSDNEVVNAQAREAKGTEKMASPKSRKRTRDGDEEDSKETPQQTRSVSAKKAKGAAAAVNTLPTEAATASKPAAKKSKPDVFEAEHAKVMEAAKAAAAKVHLSMRERVKLAKAVQASREERLQTRSLRKERKEEQKQQSFHRILEEQKRQLLARASMQQPAPSPTAKVNASAKAVHFADE | soluble |
| MAHHHHHHMQGTGSAKSFLEKLKSGRTTSAAIDNNAPPDGDGVILRRVERQYASEPLSALGLKLTEDAEVLSTEVGSPAAKSNIPLHYMIIAVNNQFVGSRADFEDIAAQLLTLVIKLQSTAAMSELLANILNEEEKNFNENGDSCIDVNELLRTTPRYGFLSAEHPMFLRWNQRLQTQREARQLIRQATREAEEQQAKEALEALRRVADAEDEIQQQQAQQERQHQQMLRQGPETVNPSAPEAGARPGGEVLLKQVQDESTFGESNVNNEGFEESPEEASPEELLKLIGAEPVETEVVQHVDADEPTEVRFFINPTEEYALSNGTRVTISVKKRSGPIPKPPPGKPPKGIEKADDKQAQ | not soluble |
| MAHHHHHHMQPFQFVPQVDNKVNVVSMQPFQMYVPNHNMMVPQACPENIQQYHHQPIFFEPLPPIYVKNQLLPSPILVQMPTTVVVQNESQPAMVLSQPPSNIVVKNNPPTSVFVKQSNPNVVVKNEAPPNYVQSVEACQEGVVADMSRPMMTTLNKNIL | not soluble |
| MAHHHHHHMQRYLMNTSYLQGQLKSLYALHNKTVADYGELVQNLNEECTILCDVVPSYRISSTLENEDGGGQRKQKEVYNVQKLEHEILTQYTHFLQLLRKLSRKSHPEQQALGSRLCARLVKSSAPEFNHADALLSLAIDFANSKSVRVAQPCQTALSELLDDQKVSDTTEHIVGALLRIVRKRSYAMNPKLLNLLLHVRVAMVDVHREDLAEEKAKSKRLKKEDKELARQLQKSKARRDRAEIAAKQTRILHRIFVIYLRVIEASKTCSPVHQTKILAPTLEGLVKFAPLVNLELYQQLMEALKDLVKGGGTSRTRLRVGGTEGGSDGDNVDDKHEEETATSVTTRLHALVAVATLAQRDATATASEWRVDLSYFHEVLFRCLGEALELPSAESSSSAKMTREGEQEASNGDMDEVASQGSTSSAGSLSSQAFSIAQSMTQGTLVHQNASREWTFHVGLVLRAVDLLVLTQKHLPVARVTAILRRLIQATPLCPPHIAMSILALCHRIVLRYPLAGGVIVGGSDNVIAGRGAYNPEALQTASANADSSFTWELSLLSHSYHPTLRQVAETMCKHYHKVSKHQHGQAPIVTKQLDSLGPYEVIEEYDPSLGNLKPAAPLPTALKAEVRKRQREEAQAYEVA | not soluble |
| MAHHHHHHMQSVLPYTTNPAQIGSIEKLKLINPSSAAATGPYVNVRDPKLVVGGLLHNWDAEAAHALLNAPKSVQTWDLSWTEDETNWEERVHRCTYPEEVEDLLPAKWIGYRVQSDVDETLARVCKLCTALVDRLVSLSQGNNANVSTAKWRQRQALYDRLGAVMELLEASVGEAIPILKLKDPEFIQNCWRQMQDDERVEIISVLGTKEYD | soluble |
| MAHHHHHHMQTYHRHMTSSSNPVVIFVFDHQGSAVTDFWAPLLQSVSKGLDAFGIEVAHAPTSSEIGQQLLAAMNAGSGPIILFFQGVGDTPAEGGKGLKMPIAYDGNIDMAHIMSWGLSCISSSVTHRVHNDVDLARFFAQYPQYPALPHVLYFPSTSYTPGGYLALSQHFALDAVFGVVPNAFTAPNATHIAQRYNITSKDELPVLLVLHRSTADAGGGAGESDRVVRMPAAATSLSYREALAFLSTQITDTVAALVAKAESTQNQHFLEVAESRRVYMMGQLIERQHDIVEEERLQMAREPILVKDQAVWAKECVQLPKKHRCVAAFVDSAQDSAAKDNAVKVLSLVSVKLLEIMGREAQKVSLVVVDRQGSDAVREYFDVGHNGFPDVLFLSLDRPAKYYNFVGTFSAEGVTQFVASHDAQLTQKDVRGGHTFIPRMVPKLEEAVAVPRSGDEDKDDL | soluble |
| MAHHHHHHMRAQSDLSPSSVSELRSKLKGVRVEVGSLVSFRDEPAFEMVMRLNKRHNGNLVSAVLSKGNAACGLGGDASGSGEGIGEGRVMADRSRHVEELRMVFIPKAYGAFLEDEMQKWLDPFRGRGEANRTKRKRDEVDDNEVTDIDSDVDTDECDDADSFRSV | soluble |
| MAHHHHHHMRDRVSPGMRPYRNMCASSPCGRLSHWVVALLPLPLSGTRHLLLRIPITRTHTHTHAAHATDKSEVLSSVVAPPPPPGHAALTTVYFVLVVDVGTHLSLSLSMNRDGVEDGIYVNFFGFDGKAAMLACDMYGILPENLLYLPKKMFLQTGDESEQVLLVRYTMCERSRQGTFRTLLGAKSKLIAEGKVEALWEERRRVCQGAAPCPRFTEKQLEEAAAALDTDSESDEERQVDERGMRKPPPPLPPAPPFAPDGPRGEAAAEAAATENDESPTPVTDTPFSRAPDSEPLPPPPTQASSDAGGETRRGSGTTATNDNAALAVDAKRTTQQLPNDWTQYDVVNSLELPRAHKLCSQPPSIPQAYFPRLLETLSMEEKELAAAQKELSRYSKKSARRLRARQQERSNEPSAPGRSTSLPPLSSSPAHKPATTHLHQSVELRNRRELAAVHRVAQAHLRFLSERYEQGRSIDEKMEGVATLGTLEHMLKYQKSIGVAPEFEDRLQSKMVREESRAALQQQLRESEWERAYAIEEKAQHAQEVLERERERTKGIVAEALRTQRLITDWKQVAAHRQQETHLNGVLHRSAVRHAKADAYIETKRAATGMSRYYHDQQEVHRRQLRDTIRDMMISKKFSADGVADEDNDVVA | not soluble |
| MAHHHHHHMRISCSCLNKSLVSTAIPSDIIERAGTNLPGIPHKYRVCRAYRQWLKLAVLCPHSLLCELNEHAQMNERFVIIVRQKFREGEELRDPEEIAVAVQSCERSLAMFRFLAADGARRRFPEAKPRLNLHKMGFMEMAKINYTQMAKEYWNTYIMRRW | not soluble |
| MAHHHHHHMRKKGSGFIGGKLNLKIKKKKKNAKQEARHGEASHVDSVAKSGEAVQVKSDPSEHDGKKDGSEKIIKGTGRITTEKNTVRGVRTDFMAEIKEGYDIILENPSTFRNERRTVTSVLSNKTLLVHEEFTTDISTTCAFYIASGGKSGGKPVGQPADTPEAHIGVEYAKVFEQTSRQDQVEVREKTGLWSYRVVKKKVDGRLTNEEKLDMRVRSGRDKFCW | not soluble |
| MAHHHHHHMRPSLPKKVLAWIASYPSYFIVDDPTEKDPSKARIRRASDRQPLDVALELYRWIPEEGISEAALLTKLSEVHRDYVKRIGLRHIVDSLSEWLSFTEAPGGGGGGAEGEEKVLLLRRLQTEVELERAIHTEESKLASGDENSLPVQIEDAEMERRWPKLKYEGTMSQQQASVARAQQRRGRGDI | soluble |
| MAHHHHHHMRPVTRSPLLVAAVVVAATLCLNGDNAILSLSSGVRLAHANGPITKDQCFILNPQPTVTSCNAYLPPIVDLYGSLPYDTTPDYADCVKERCLCTGAATSTAIKTSGFFCNSSGWMESGYTTCNVLVDCFSKFWRCINRALYMRYLTDRENLDSGEVDLITDLISHGSHPGEPFDITDTFRSCRLMMCAAANSRQNCGLVTCLPNYTQCDEYIRPPPLPYTHPLCTQGCRAALLMMALTIAAVSFSACCFCCCPAQVRISEPVLMEEVPAHKVELSSMRSEVEAQARRHRTNDPYTQ | not soluble |
| MAHHHHHHMRSGPCPLPPAVAARSLLSPFGIGVSKRLALVGSGNSITALLVKENVPAGTPLLLAPDAALLTCQGALDADVDGLVPPPAEMLELLKRDTAQLDHVYLAYYLSLRCFTNTEDWFSSQIHRFKDSGSASQEDTASSRIWERFAQKYVTAPAPVFMAALQYVWESCFRKPATEADSASAPLPAALAVAPVVDVASQSRNATNSALTATTAKALKETHLHSDITGARQALLAKNDAYVYWVLTAITDIPVGGEVSVSSESVL | soluble |
| MAHHHHHHMRTAVGSGAGASAAARAIPTAVPLTVADIDALARRDGVVSSDAVVSQQGTVASSRSVAELQAVVQSLQQENAELRERLERDRRQMLRSAMDVRDLHASQKQIRQRDLDRIEWLYCDNQRLRKILEMQGSAQELAGVLSPQPPAAAPATAHRPSLEGLRPLPEVPVELNAIEEEMPALEAEVVHLRGALVLKTQHLDDLWGHAERAEGYVQDLLQKLEHVQGIVREESDSCARRSKHLESTDQPLEDIVSFVSLRDHSSATQLTGPSSTTPFPFATVGRCEHIKRAAAVHGG | not soluble |
| MAHHHHHHMSDSEWSSDSGVSNAEAIAAASLNKHLGELMTLQHPSRVTHRRPAYATSEGTTASSATISHTPRVSGEAPRKQARMDISSLIRQALSQSSAHCTSANVDEVAGRVVAALRQKAGGAEVARAVTRALADPLNEELRESVLSGLLRPEELVALDEVSLLNQAERSVLAKARRERLNQHSVEYLERLNLTVTNMLTCPECRSHECYANFRFTDFVKWQGDDQTPTLQRCCRCSVSFCNERGKRAASAPGACLCAWVAVKVLSATTASRPCIHPSSNRHRTARRGSTRETGKISRFSSCRTRHHFCQKR | not soluble |
| MAHHHHHHMSEQILFDNFPLTFLNKDASEDYEDKNEKTYREKIKNIIEDLKSLRIEINEKYSIRSMLEEKLTLLQKEEQTKENNMKYIMNFSEHNIYEREVLNYQKNIAHLKKQIQTSNSKIKLLLEKEFKVRKQLQINYMNLYDILNERIEYIVENYVKHRKCSCAIYAYKQEKKEE | not soluble |
